Experimental data from article PMC3845372.

B1: dimeric pilE G4 (NG16 core) (structured_DNA)
DNA: GGGTGGGTTGGGTGGG
B2: oligo dT16 (ssDNA)
DNA: TTTTTTTTTTTTTTTT

Target: RecA (RecAEc) (Escherichia coli, UniProt P0A7G6 2-353)
Test: fluorescence anisotropy

RecA (RecAEc), sequence (P0A7G6 2-353): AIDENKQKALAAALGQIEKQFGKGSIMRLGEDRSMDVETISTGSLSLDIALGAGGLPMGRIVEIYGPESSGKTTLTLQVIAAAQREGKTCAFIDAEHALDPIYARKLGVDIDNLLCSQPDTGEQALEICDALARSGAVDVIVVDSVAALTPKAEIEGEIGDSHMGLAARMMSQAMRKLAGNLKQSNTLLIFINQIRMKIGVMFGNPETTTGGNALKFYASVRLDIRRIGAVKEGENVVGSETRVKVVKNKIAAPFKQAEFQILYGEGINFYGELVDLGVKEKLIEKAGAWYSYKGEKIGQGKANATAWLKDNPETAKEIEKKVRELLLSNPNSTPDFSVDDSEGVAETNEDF

Binder	binding result	Kd [nM]
B1	no binding	–
B2	–	640 ± 260
